Test: soluble on expression in E. coli; label from the status in PepcDB or PDB records

Soluble on expression in E. coli, not soluble:
MSQSNLIQTDRFVLSETERSSIEHEMHHYEDPRAASIEALKIVQKQRGWVPDGAIPAIGEVLGIPASDVEGVATFYSQIFRQPVGRHIIRVCDSMVCYIGGHESVVGEIQKQLGIGLGQTTADGRFTLLPVCCLGNCDKAPALMIDDDTHGDVRPDGVAKLLEAYV, MGSDKIHHHHHHMTLDLKQEKGREIFFRLAEKADVIIENFVPGVVKKLGVDYEAVKKVKPDIIYCHVSGFGQDGPYRDRPAFDQLIQGEAGIISYTGTRETPCKINVPITDLLASMYGAYAVLAALLRREKTGEGMEIDISLFDCAVTMMLNLMNMAIVEGMKDEELRMGTKYFLATPYEPYPAGDGKLVNVVVATEWHWKEFCKAVGLEELLDDPRFATNQQRLKHREQLERIIIEKFREKPRDDWIEILLKAGVPCGAVNTIQEVIEHPQTKHRKTVVEVDYPELGKIKLFNNPVKFSGFEVEVRRPPKLGEHTEEILKSIGLSEEEIADLRA, DNYVGGIPLTSAHSGTVSGGVYCDSYYGMGDQEAKASNTIEKTFTVPDNANVEWAMLLTNVYCGHMQNNYQGKAKVDFNGKNLGTETLNVPYTYSYNGGNGHVQVNDHVNRVTSDYMMYYDVTGLVKAGKNTAVVKTDPLDSSFDGRIRLVTLVVAYNDGSKKTIWYQVNRGHDADSYYSDDEMNENYIGSTAFQAALPEGSSLTDSKLTLVYQASSDGAYAFNGNALSSGTPQGTFSGSNTWDVKDSLKSSGTNTLTYDRTASFYKSVLGILTAEYTTSSSGDSTDDTPADNTTDNGSAGDTTDDISSDNTTNDTSSDNTTSDVPAGNTTNDTPADNTTDAKFSADLGVQAIKVSHNSAAKAWKNLVNTVNVTVINNGPEKAGSFALELYSEGSLLESKPINGLANGATEAVEFVWKPEDAKNYTLRAVVVPGSTINDANATNNELSKTQEVMHNGYIGDKPLETYLHGTVKGNIIYDYGNSSYVKVSSGDVYTAGHSLSLPEGAIVKYARLYNFWTWSATGSSGVIPSMSLDFAGSSLTPEAEYADQKGWGQYDYPTGTWAYNVTGLVSGSGNYITTVKNTNSDAENSFCIDGIALLVVYEDASGKETQYWINEGCDAVSTMSSSGGLTPDEATVKIAFAGDSIDLGNVDNARLWTTVQSGGHEGIALKFNEMSISGVYDSTPSSNLDIDEARDVTSYLLSQNNEAQIIAPSVTDNSGDYMIPSSAILAVSYKSETTDDTNITDDTNVTDDTNVTDGTNVTDDTNVTDGTNVTNDTNVTNDTNVTNDTNVTNDTNVTNDTNVTNDTNVTDDTNVTDGTNVTDGTNVTIDTNVTIDTNVTIDTNVTDNTNVTDDTNMKDDTNVTLKVNIIPVISLTVSPDSLDFGTVSPGTPSESLPLALKNNGGISIKVTAEVHDQENGPFATGLLLDQNIWSNYSKVLAAESAETSQAQLDLPL, MGSDKIHHHHHHMRLNELYSGKNAFIFQGVGIKYQKFLTLLDESQRELLKEYCSIVYKKIKLDLWGYLTRSLSGEYDDKFSDWVSIYTIDCVVYNTYIEDGIKPSVLLGYSMGLITALACGKAISFEEGLELLSMSYNYPKYTSRKDEGMGLVTGMTCSDIKKIIDKNELGDYAYIASENNEYCILVSGMKNRVDKLLSIALTEGALSAKDIDSPYAFHSKYALIGIEEYEKLVSRLCVCNLKIPIISSYDQRIIVDSCELKKELVKNVWGEMKWMASVEKAININNYNFFEVSLIDSISRFSRMINSNCKFFTYKSFMKIKNVQVQN, MEELRFNSVFDIIGPVMIGPSSSHTAGAARIGKVVRSIFGQQPDSVDIYLYESFAKTYRGHGTDIALVGGLLGMEPDDEQLSNSLEIAYEQGMEVCFIPKSEKADHPNSVKIVVSSGDRKLSVTGISIGGGNIQISELNGFKLSLSMGTPTFIVVHQDVPGMIAKVTNILSASDINISTMTVTRESKGEKAIMIIEVDQAEVGDIVMQLAEIPHIYSVNYFD, MEKDNICYKTYVEILERELVPAMGCTEPIALAYCSAKARSVLGVLPDKVLVEVSGNIVKNVKSVIVPNSGGRRGIEAAAAVGILAGREDLELEVLSKVTDEDIAGLGAYMEKVEITVAPLDTPYLLDMAVTAKKDGSRARVRIAQEHTNIIEIEKDGKILFEKQAGEEEDCDAPDYSLLTIEKIYDFADTADLEDVKAVLDRQIAYNTAIAEEGLRGDYGANIGRVLMEEYGDRIENRAKAMAAAGSDARMNGCDLPVIINSGSGNQGMTASLPVIEYAKELKCSREKLYRALLLSNLVTLHQKTGIGRLSAYCGAVSAGAGAGAGIAYLEGGDLKVVAHTLVNALAITSGIVCDGAKASCAAKIAVAVDTGILGYKMYKKGQQFYGGDGLVAKGVENTIRNIGRLGKEGMKETDKEIIRIMTE, MIIVSRAIVLHNTAYNDSYSIAHLFSRESGRVSYLIPRSSKRGKSGGSLRLLISPLNELEITAEHKQHRDLHFIKEAKLCSLHGRIQSDPVRNSIALFLAEFLYLILRLPEADTNLYDFVAFSIDKLEEMDGPMANFHLAFLFRLLVPLGLIPDLQFGGSVIPRWFDPADGRFVPNAPAHGRGIPPHQSTYLQLFSRITFDNMKAFRLSRAERRQVLDYLVDYYRFHLPPFPLLKTPDILSTLFD, MGSDKIHHHHHHMVEKLASSEVANRLNEWYDTIKQQDVERASKLRNEVQEAINQMEEDQNVLQYFNLIDSRFRQVIEEFDKSKTILKSIKNQTERSETDQLLRYYYFFFNGLYEFYKRNYIQAIHYYRQAENFLISIPDEIEHAEFHIQLANAYYGIEQNFFSLSHAKKALNIYLNHENYVNRLITTQLTIAANELDLKQYGSAETLYKKAIKTASEHNHAFMEVLGYFNLGICYELQDKLEFARDCFEAALDISYPQENKRDSYLRIKYMLARTLFKMELVDEAMDWFEDAQTLVDATNEETYQAKLKIIYSIYKTYDETSIDNGLEVLREKKLWHDVSDLTTNAARHFKKKEMFKLATKYFSEALLAKEKIPMLHKEVESE, MWPSNRGPTLFQYSIRCLGFVAFIGVVRCHCPHMMGVKPPGPPSGPSPPGKFPDGDEGWDYDETAAPGIVPEPHFIQSTYIYRSPNVQEKTFSSRVVNVLKDIRTRLAKSARLTLENENIECSSPTDHYRCQEYPASGTWNYLIVEDQQKGAVTYTFDRKFNEKNDGTIEMALLDAFSRHSPSSLIAFASSEAEKEVGYIRALTVQEMDSLSGKRSHQKISMEKFGPNELILLEPALLEVRTGANLKLNSDSLRRIDSTKEFDKLLEEFRNVFILFWNSNRMVSLHTFNLWSRVADKIKISEDTLLAHVPCHDNADFCQGLNSEDYHTVVSYRNGQNTGKTENIGDVEFYENWVELSLSGAIQRLPNESKLSEFKKGIVGGKKRSSVTIGVFPSDQDTSFQHFQIAAEKLSGKYYVAYFINENSKPAITTYRHAEKQKRTDYSGKFDPATLMEFITKSSIPSIIGISNGFTTDLLFHQKRPILIQIGGAGEFEPFSKLSARQDARKTYIFTKIDGESEMIKKTKKALGVGENESIIVFLNKDRVHRIPISKPKCPDHLQKILQMIITSEADQVLSTKEPHPLRYLQVEKVNEVFGFEETLVLPDHTLFLDSDPFSRHPPITEGGGGGCPFMQGGGAPTESSQHSEL, MGSDKIHHHHHHFGKQSKPTPNFAKKSDAYSADDDRVPNLVDDDEEEIIGDEEDDVNQPGPSGSQSNPEPQDEEENAEQQSANSSQSSAAEEEDDEHVVPENEPVKPTEEFAKKSPKNTGGAKRRTARRGD, MFVKNVNFYYRQILEKFENSYFAEDLTKVIIGIDCDYLDANELSFSEFKAKYYEALSKNKICDFAGFFGVFSANFVSLFEKIPLSSKKNYDFPLFLFANAKAYLIYEKNSKMFFKFGASKYFEYLKDDIEPMKKKQKNDFEILNSLEDEKNDFLKMCEKAKEYLLSGDIFQVVLSKQLCIKHQVNAFDYYESLSALNPSAYMFYFPSKYGVVLGSSPEFLLKIKKREIYLAPIAGTRNLENNCDLLALEKDLLSDEKELSEHKMLVDLARNDASKFGTQTRVENLFSIIKNKFVMHIVSEVYANMKEDASIFDVIEAVFPAGTLSGAPKIRALEITSELEDCDRGIYGGAVGFLNFNEDITLAILIRCAFFTQDKAYLASGAGIVLQSESQKEYAEICAKRKALLVAFENLKKENQ

Soluble on expression in E. coli, soluble:
MEVQSMLLNDVKWEKPVTISLQNGAPRIFNGVYEAFDFLQHEWPARGDRAHEQALRLCRASLMGDVAGEIARTAFVAASRQAHCLMEDKAEAPNTIASGS, MDPARECEGKGACELKSNKRFADKIMPHLLNLYGSSAKANDFDMYAPNASFEDPLTHAQGVKQIKSAFYSLPKVFGESKIVEYHIQESETSPGKKEILIDNKQHYKIMGRNIDMISLIKLYVEDGKIVRHEDWWDKKPLRNRDTVSFPLVGRVMEMGRRGLMLATHAMMGFGKDPDSQ, MSLRKGIIAAGNMLVDHVHQIRQWPERGWLVEIVHSERATGGAPLNVLLTLAKMHAGLPLQAVGLIGEDNDGDYITAMLDQYHINRQLVQRTSSAPTSMTQVMTDAEGQRTFFHSPGANRLLDLPAFEPLDAPLKIFHLGYLLLLESLDRPDEVYGTRSARLLAQMRERGYEVSLDLVSRKGDPRYRPLVLPALKHLDYLTINELEASEFSGLEIRLPNGEPHVANIARAASALLDAGVRQRVVIHCPEGAWGVSRTEAGRWVPSWRLPPEEIIGSVGAGDAFCAGLLYGSHERWPLTASLQLAHACARASLQAANAIDGAKTLPELQAFIQLQNGEGHHHHHH, MSLNKYLEQLVLLSKIDQEIDSYEPKIDSINKTLKDAELKIEKINADLEKIDEEIKDIENQKIQNNAHISEFSAKIKDLSKKSGVVKTEKEANALKIEEDIAKEQLDAANDEIVRLDKILENKETYKKELEEEKIKQEQNINEIRVSIKSEMEVLEKDRMSVYDKKTKLVSEMNQKVLSFYEKIRKWAKNTAVVPVKKQACYGCFMKIYDKTYLSVVKGEEIVTCPHCGRILYKEQEEQNEGHHHHHH, MISASLQQRKTRTRRSMLFVPGANAAMVSNSFIYPADALMFDLEDSVALREKDTARRMVYHALQHPLYRDIETIVRVNALDSEWGVNDLEAVVRGGADVVRLPKTDTAQDVLDIEKEILRIEKACGREPGSTGLLAAIESPLGITRAVEIAHASERLIGIALGAEDYVRNLRTERSPEGTELLFARCSILQAARSAGIQAFDTVYSDANNEAGFLQEAAHIKQLGFDGKSLINPRQIDLLHNLYAPTQKEVDHARRVVEAAEAAAREGLGVVSLNGKMVDGPVIDRARLVLSRAELSGIREE, MPLTDPAKLQIVQQRVFLKKVCRKCGALNPIRATKCRRCHSTNLRLKKKELPTKKG
